US20190300618A1 (Merck Sharp & Dohme, published 2019)

Experiments:
F28A [1] = target: T1, F28A; assay: flow cytometry, CHO-K1; sub-column 1 of 2
T1 construct: also called hCD27 F28A
T1 receptor: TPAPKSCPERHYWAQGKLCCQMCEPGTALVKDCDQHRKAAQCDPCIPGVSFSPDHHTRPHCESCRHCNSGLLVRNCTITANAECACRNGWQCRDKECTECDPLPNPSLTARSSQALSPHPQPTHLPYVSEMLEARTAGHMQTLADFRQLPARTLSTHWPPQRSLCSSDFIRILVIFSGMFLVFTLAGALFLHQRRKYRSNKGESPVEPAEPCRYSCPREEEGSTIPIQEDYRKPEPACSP

R87A [2] = target: T2, R87A; assay: flow cytometry, CHO-K1; sub-column 1 of 2
T2 construct: also called hCD27 R87A
T2 receptor: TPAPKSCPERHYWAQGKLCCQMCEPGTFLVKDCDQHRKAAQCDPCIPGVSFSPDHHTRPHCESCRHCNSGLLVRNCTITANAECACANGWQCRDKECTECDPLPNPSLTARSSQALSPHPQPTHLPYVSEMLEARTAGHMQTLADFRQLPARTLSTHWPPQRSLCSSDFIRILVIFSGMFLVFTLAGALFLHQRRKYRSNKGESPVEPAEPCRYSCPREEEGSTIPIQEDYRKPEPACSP

[3] = target: human CD27 (wild type), expressed on cells (human) (UniProt P26842); assay: flow cytometry MFI on CD8+ T cells from peripheral blood
[4] = target: human CD27 (wild type), expressed on cells (human) (UniProt P26842); assay: flow cytometry on primary T cells
[5] = target: human CD27 (wild type), expressed on cells (human) (UniProt P26842); assay: flow cytometry MFI on CD4+ T cells from peripheral blood
[6] = target: human CD27 (wild type), expressed on cells (human) (UniProt P26842); assay: cell ELISA on CD27-transfected CHOK1 cells
[7] = target: Macaca mulatta CD27 (mmCD27), expressed on cells (Macaca mulatta (rhesus); same entry given for cynomolgus monkey); assay: cell ELISA on CD27-transfected CHOK1 cells
[8] = target: human CD27 (A59T), expressed on cells (human) (UniProt P26842); assay: cell ELISA on CD27-transfected CHOK1 cells
S63A [9] = assay: flow cytometry, CHO-K1; sub-column 1 of 2
R93A [10] = assay: flow cytometry, CHO-K1; sub-column 1 of 2
G16A [11] = assay: flow cytometry, CHO-K1; sub-column 1 of 2
K31A [12] = assay: flow cytometry, CHO-K1; sub-column 1 of 2
H36A [13] = assay: flow cytometry, CHO-K1; sub-column 1 of 2
P8A [14] = assay: flow cytometry, CHO-K1; sub-column 1 of 2
R10A [15] = assay: flow cytometry, CHO-K1; sub-column 1 of 2
[16] = target: human CD27 (wild type), expressed on cells (human) (UniProt P26842); assay: competition cell ELISA on CHO-hCD27; competitor detected: mouse hCD27.15 at 1 µg/ml
F28A [17] = assay: flow cytometry, CHO-K1; sub-column 2 of 2
S63A [18] = assay: flow cytometry, CHO-K1; sub-column 2 of 2
Q15A = assay: flow cytometry, CHO-K1; sub-column 2 of 2
R93A [19] = assay: flow cytometry, CHO-K1; sub-column 2 of 2
Q91A = assay: flow cytometry, CHO-K1; sub-column 2 of 2
G16A [20] = assay: flow cytometry, CHO-K1; sub-column 2 of 2
E9A = assay: flow cytometry, CHO-K1; sub-column 2 of 2
K31A [21] = assay: flow cytometry, CHO-K1; sub-column 2 of 2
K38A = assay: flow cytometry, CHO-K1; sub-column 2 of 2
G89A = assay: flow cytometry, CHO-K1; sub-column 2 of 2
W90A = assay: flow cytometry, CHO-K1; sub-column 2 of 2
K17A = assay: flow cytometry, CHO-K1; sub-column 2 of 2
V49A = assay: flow cytometry, CHO-K1; sub-column 2 of 2
Q41A = assay: flow cytometry, CHO-K1; sub-column 2 of 2
H60A = assay: flow cytometry, CHO-K1; sub-column 2 of 2
W13A = assay: flow cytometry, CHO-K1; sub-column 2 of 2
H36A [22] = assay: flow cytometry, CHO-K1; sub-column 2 of 2
P8A [23] = assay: flow cytometry, CHO-K1; sub-column 2 of 2
I46A = assay: flow cytometry, CHO-K1; sub-column 2 of 2
V30A = assay: flow cytometry, CHO-K1; sub-column 2 of 2
R10A [24] = assay: flow cytometry, CHO-K1; sub-column 2 of 2
D43A = assay: flow cytometry, CHO-K1; sub-column 2 of 2
N88A = assay: flow cytometry, CHO-K1; sub-column 2 of 2
R37A = assay: flow cytometry, CHO-K1; sub-column 2 of 2
R87A [25] = assay: flow cytometry, CHO-K1; sub-column 2 of 2
D32A = assay: flow cytometry, CHO-K1; sub-column 2 of 2
P44A = assay: flow cytometry, CHO-K1; sub-column 2 of 2

With 1A4 (mouse IgG1) (antibody) the % of WT hCD27 binding (geo mean FITC) (F28A [1]) was 113% and the % of WT hCD27 binding (geo mean FITC) (R87A [2]) was 143%.

1F5 hIgG1 (antibody) showed an EC50 [3] of 1.3 nM, a fold higher EC50 compared to 131AVH6VL6-hIgG1 [4] of 5 fold and an EC50 [5] of 1.54 nM. For the same molecule, the EC50 [6] was 0.325 nM, the EC50 [7] was 0.193 nM and the EC50 [8] was 0.326 nM. It also gave a % of WT hCD27 binding (geo mean FITC) (S63A [9]) of 144%, a % of WT hCD27 binding (geo mean FITC) (R93A [10]) of 120% and a % of WT hCD27 binding (geo mean FITC) (G16A [11]) of 96%. It also gave a % of WT hCD27 binding (geo mean FITC) (K31A [12]) of 205%, a % of WT hCD27 binding (geo mean FITC) (H36A [13]) of 116% and a % of WT hCD27 binding (geo mean FITC) (P8A [14]) of 82.5%. It also gave a % of WT hCD27 binding (geo mean FITC) (R10A [15]) of 105%, an IC50 (read off the curve) [16] of 4 nM and a % of WT hCD27 binding (geo mean FITC) (F28A [17]) of 46.2%. It also gave a % of WT hCD27 binding (geo mean FITC) (S63A [18]) of 121%, a % of WT hCD27 binding (geo mean FITC) (Q15A) of 127% and a % of WT hCD27 binding (geo mean FITC) (R93A [19]) of 85.5%. For the same molecule, the % of WT hCD27 binding (geo mean FITC) (Q91A) was 115%, the % of WT hCD27 binding (geo mean FITC) (G16A [20]) was 101% and the % of WT hCD27 binding (geo mean FITC) (E9A) was 120%. It also gave a % of WT hCD27 binding (geo mean FITC) (K31A [21]) of 120%, a % of WT hCD27 binding (geo mean FITC) (K38A) of 94.2% and a % of WT hCD27 binding (geo mean FITC) (G89A) of 68.5%. For the same molecule, the % of WT hCD27 binding (geo mean FITC) (W90A) was 10%, the % of WT hCD27 binding (geo mean FITC) (K17A) was 112% and the % of WT hCD27 binding (geo mean FITC) (V49A) was 92.8%. It also gave a % of WT hCD27 binding (geo mean FITC) (Q41A) of 66.3%, a % of WT hCD27 binding (geo mean FITC) (H60A) of 110% and a % of WT hCD27 binding (geo mean FITC) (W13A) of 82.8%. The % of WT hCD27 binding (geo mean FITC) (H36A [22]) was 80%, the % of WT hCD27 binding (geo mean FITC) (P8A [23]) was 73.1% and the % of WT hCD27 binding (geo mean FITC) (I46A) was 69.7%. The % of WT hCD27 binding (geo mean FITC) (V30A) was 88.9%, the % of WT hCD27 binding (geo mean FITC) (R10A [24]) was 113% and the % of WT hCD27 binding (geo mean FITC) (D43A) was 86.1%. The % of WT hCD27 binding (geo mean FITC) (N88A) was 119%, the % of WT hCD27 binding (geo mean FITC) (R37A) was 88% and the % of WT hCD27 binding (geo mean FITC) (R87A [25]) was 7.8%. It also gave a % of WT hCD27 binding (geo mean FITC) (D32A) of 59.6% and a % of WT hCD27 binding (geo mean FITC) (P44A) of 83.7%.

9F4 (mouse IgG2a) (antibody) was tested, and the % of WT hCD27 binding (geo mean FITC) (F28A [1]) was 115% and the % of WT hCD27 binding (geo mean FITC) (R87A [2]) was 153%.

B1: Antibody hCD27.131A (mouse parental 131A) (antibody, V domains shown)
VH: QIQLVQSGPELKKPGETVKISCKASGYTFTNYGMNWVKQAPGKGLKWMGWINTNTGEPTYAEEFKGRFAFSLETSATTAYLQINNLKNEDTATYFCAREGDAMDYWGQGTSVTVSS
VL: QIVLTQSPAIMSASPGEKVTMTCSASSSVSYMHWYQQKSGTSPKRWIYDTSKLASGVPARFSGSGSGTSYSLTISSMEAEDAATYYCQQWNSYPFTFGSGTKLEIK
notes: mouse IgG1; also called mouse hCD27.131A
For B1, the “% of WT hCD27 binding (geo mean FITC)” value (F28A [1]) was 106% and the “% of WT hCD27 binding (geo mean FITC)” value (R87A [2]) was 153%.
